According to PMC8876998:
Several values for one entry are separate records, joined by “and”; a condition that tells them apart may be missing. Equal values may be shown once.

What was measured:
[1] = target: Getah virus capsid protein (Getah virus (GETV), strain SC483); test: cryo-EM structure
[2] = target: Getah virus envelope glycoprotein E2 (Getah virus (GETV), strain SC483); test: cryo-EM structure

Substance | stoichiometry N [1] | stoichiometry N [2]
Getah virus capsid protein (natural protein) | 6 and 5 | 
Getah virus envelope glycoprotein E2 (natural protein) |  | 3
